Source: PMC4876634 (Nature chemical biology, 2016)

Tests used:
[1] = target: T1, Suv39h1 R24,K27A double mutant (FLAG-tagged) (human, UniProt O43463 1-412, R24A | K27A); test: pull-down
T1 sequence: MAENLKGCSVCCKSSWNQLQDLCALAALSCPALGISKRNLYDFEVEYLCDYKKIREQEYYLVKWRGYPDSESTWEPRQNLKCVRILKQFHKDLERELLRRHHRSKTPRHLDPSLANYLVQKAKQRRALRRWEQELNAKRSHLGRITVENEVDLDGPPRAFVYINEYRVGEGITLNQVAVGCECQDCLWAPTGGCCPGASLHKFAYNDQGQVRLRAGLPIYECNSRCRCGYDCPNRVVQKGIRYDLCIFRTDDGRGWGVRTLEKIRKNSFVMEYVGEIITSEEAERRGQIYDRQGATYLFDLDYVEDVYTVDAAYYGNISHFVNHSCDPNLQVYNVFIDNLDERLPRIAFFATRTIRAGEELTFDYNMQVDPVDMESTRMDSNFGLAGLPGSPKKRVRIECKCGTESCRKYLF

[2] = target: T2, Suv39h1, wild type (FLAG-tagged, recombinant human) (human, UniProt O43463 1-412); test: pull-down
T2 sequence: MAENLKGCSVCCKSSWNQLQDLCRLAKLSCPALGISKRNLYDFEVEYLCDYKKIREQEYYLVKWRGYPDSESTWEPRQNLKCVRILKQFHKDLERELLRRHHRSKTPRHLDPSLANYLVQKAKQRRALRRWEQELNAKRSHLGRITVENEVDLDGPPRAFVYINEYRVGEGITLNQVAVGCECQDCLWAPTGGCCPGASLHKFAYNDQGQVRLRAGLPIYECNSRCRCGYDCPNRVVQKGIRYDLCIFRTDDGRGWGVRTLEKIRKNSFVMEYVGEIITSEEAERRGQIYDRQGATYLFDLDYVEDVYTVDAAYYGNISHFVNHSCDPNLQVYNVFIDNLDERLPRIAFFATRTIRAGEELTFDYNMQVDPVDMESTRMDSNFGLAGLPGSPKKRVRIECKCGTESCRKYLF

B1: HP1β (human Cbx1), His6-tagged (natural protein)
chain: not shown
binding result [1]: binds
binding result [2]: binds
